Source: the supplement of paper PMC12455559

assay: purified protein yield per well (BCA); higher = higher soluble expression
Method in brief: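 Candidate enzymes were expressed in E. coli C41(DE3) in 2 mL autoinduction cultures with 100 µg/mL kanamycin, at 37 °C for 2 h and then 18 °C for 40 h. Cells were lysed, and protein was bound to Ni-charged magnetic beads and released by SUMO protease cleavage on an OT-2 robot. The read-out is purified protein yield per well, measured with the Pierce Rapid Gold BCA kit. Values below 25 ug (0.1 mg/mL) are below the detection threshold.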

Purified protein yield per well, < 25 µg:
QTSDPTSASLNASAGPLSVSTASVTAPRGFGGGTIYYPTTQARYGVIAISPGFTATETSIAWLGRRIATHGFVVITLNTLTTLDQPASRANQLMAALTYVVNSSSSAVKARIDTARLAVAGHSMGGGGALIAARDNPTLKASYPLTPWNSSTSFSTVRVPTMIVGADGDTIAPVATHARPFYASLPSATSKAYGELNNGTHFSPNSTNTPIGRYGVAWMKRFVDGDTRYSTFLCGTEHTRYATALVFDRFNQNCPY [ESM191]
QTSDPTSTSLNATSGPLSISSTSVSSFSARGFGGGTIYYPSASGRYGVVAISPGYTARQSSIAWLGRRLASHGFVVITIDTNSTLDQPPSRATQLMAALDHVVNRASSTVRSRVDAARLAVAGHSMGGGGSLIAARDNPSLRAVYPMTPWSVSKDFSAVRVPTMIIGADNDSVASVVTHARPFYSSLAASLPKAYGELNNASHFAPNTTNTPIGRYAVTWMKRFVDGDTRYSPFLCGTPHNQYATSQVFARYQQNCPY [ESM134]
QTSPDCSAITISSSTNTGVNLVSTYLESDGIRNGTDYYGSTIYYPQNTTSILASIIIVPGYLNFESSMQNWGPFLASHGIVCMTIGTNNIFDLVNDRKEALQDALISLKAENTRVNSPLFNKLNTSRVALAGWSMGGGGAQLAAVEDSTIKAIIALCPWIDPMQISVNSLIHDVPVLFFSGQFDAVAPSSTHANIHYNYTPSTTDKLIYEISSGGHTVANVPSGGQGEVGRMALSWLKKYLIEDYCYCPLLLDTPLTASIYQTNVTCSTYGCTDSIALNYDPLATTDDGTCIYCVYGCTDSTSVNYAPLAICDDGTCIASVYGCTNATACNYYAGANINDGSCEWTSCNPTSCGASAITGLGVTNVIHDRVTLTFDNMNTYDTSGAQICRVDQLRIKYREVGTSSWSQKNMAAPTGYDPTTGICNSTQNTDKLVLGLSGSTTYEWEMRVWYCVTGATAWVVGPDFTTADNCPNIGSFTAYGSNPIRATFDWDDSNGSYEFVRIKMRVDSISNPQGTDWFQVGGFGVTYGTFTKDKNGLVAGETYRAQARTWCDPNGGAYNSLSWTALATW [TEP033]
QTTAPTSASLNASAGPLSVSTASVTAPRGFGGGTIYYPTTQARYGVIAISPGFTATQTSIAWLGRRIATHGFVVITLNTLTTLDQPDSRANQLMAALNHVINSSSSAVKARIDTSRLAVAGHSMGGGGALIAARDNPSLKASYPLTPWNINSAFSTVRVPTMIVGADGDTVAPVGTHARPFYAALPGATSKAYGELNGATHFSPNSTNTPIGRYGVAWMKRFLDGDTRYSTFLCGTEHTRYATALVFDRYNQNCPY [ESM122]
QTTAPTSASLNATAGPLSIASASVSSLAASGFGGGTIYYPTTSGRFGVVAISPGYTASQSTIAWLGRRMASHGFVVITIDTNTTLDYPESRATQLRAALDHVINRASTTVRNKVDPARRAVAGHSMGGGGSLIAAEADSTLKAAYPMTPWNISENFSRVRVPTMIIGADGDTIAPVISHARPFYGSIPNTTFKAYGELNNASHFAPNTTNTPIGRYGVAWMKRFVDGDTRYSTFLCGAEHNRYNTSLVFDQYRSNCPY [ESM079]
QTTAPTSASLNATAGPLSVSTASVSLPRGFGGGTIYYPTTQARYGVIAISPGFTATETSIAWLGRRIATHGFVVITLNTLTTLDQPASRANQLMAALSYVVNSSTSAVKARIDTTRLAVAGHSMGGGGALIAARDNPTLKASYPLTPWNSSTSFSTVRVPTMIIGADGDTIAPVAAHARPFYASLPGATTKAYGELNGGTHFSPNSTNTPIGRYGVAWMKRFVDGDTRYSTFLCGTEHTRYASALVFDRYNQNCPY [ESM124]
QTTAPTSSSLNATAGPYSVSTSSVTLPVGFGGGTVYYPTQTGKYGVIAISPGFTATQSSIAWLGRRLATHGFVVLTMNTLTTLDQPASRANQLMAALNYVLNSSPSAVRSRADGTRTAVAGHSMGGGGSLIAARDYPTLKASYPMTPWSPTSNFSTVRVPTMIIGADGDTIAPVATMSRVYYQNLPSTTSKAYGELNNATHFAPNMTNTPIGRYAVTWMKRFVDSDTRYSPFLCGAPHQAYATSLVFDRYSQNCPY [ESM083]
QVANPYAKGPNPTEASVTATTGPFAVTTSNISSLVSGFGGGRLYYPTATNQGTYGAIALSPGFTAGWSSIDWLGPRLASFGFVVIGIETNSRYDYPPSRGEQLLAALDWAVEDSPAASRIDPTRLAVGGHSMGGGGSLEAASDRPSLKAVLPLAPWNSDKTWNEVQVPTLIIGGESDTVAPVGSHSTPFYNSLSGEKAFLELNNASHFFPQSPNNLVAKLAISWAKRWVDNDTRYSQFLCPGPASGGLSEVQAYRQTCPF [TEP096]
QVGPAPSSSSLNATAGPFAVSTSNVILARGFGGGTIYYPSTSGLYGVVAISPGFTATESSVAWLGRRMATHGLVVITINTNTTLDQPASRATQLMAALNYVVNSASSTVRSRVDSTKLAVAGHSMGGGGALIAAEDNPTLKASLPLTPWNLSTSFTRVRVPTLIVGADGDSVASVTVHARPFYASLPASTFKAYAELNLASHFTPNSTNTPIGRYGVAWMKRFVDADTRYSPFLCGAEHNAYNTALVFDRYNQNCPY [ESM153]
QVGPDPTSASLNATAGPFSVSTASVISPRGFGGGTIYYPTTTGRYGVVAISPGFTATQSSIAWLGRRLATHGLVVITMNTNSTYDQPSSRATQLMAALNYVVNSSSSTVRARVDSSKLAVAGHSMGGGGALIAAENNPTLKASLPLTPWNSSTNFSDVRVPTLIVGADGDSVASVSRHARPFYASLPSNTFKAYAELNGASHFTPNSTSTPIGRYGVAWMKRFVDADTRYSPFLCGAAHQSYATSLVFDRYSQNCPY [ESM125]
QVGPTPTSSSLNVTAGPFAVSSSRVFSPRGFGGGTIYYPTTSGQYGVVAMSPGFTATESSIAWLGRRLATHGLVVITINTNSTYDQPASRATQLMAALNHVLNSASSTVRSRVDSSKLAVAGHSMGGGGALIAAQNNPTLKAALPLTPWNTSTRFDGVRVPTLIVGADGDSVARVASHARPFYASLPATTFKAYAELNGASHFAPNSTNTPIGRYGVAWMKRFVDADTRYSPFLCGAAHDAYATSAVFDRYNDNCPY [ESM085]
QVVVFEETFSTGLGKFTAAGSVVTSSGAARLDGCYGCTDGSITSTAISTVDFTGLRLSFDRVTSGLDSGEAGIAEFSTNGSTYTAVESIRTASGRVTFNLPTSAENQSGLRLRFRINASLSSETYTVDNIRLEGTSGSGGGTTNPFEKGPDPTKTMLEASTGPFTYTTTTVSSTTASGYRQGTIYHPTNVTGPFAAVAVVPGYLASQSSINWWGPRLASHGFVVITIDTNSTSDQPPSRATQLMAALNQLKTFSNTSSHPIYRKVDPNRLGVMGWSMGGGGTLIAARDNPTLKAAIPFAPWNSSTNFSTVSVPTLIIACESDSTAPVNSHASPFYNSLPSTTKKAYLEMNNGSHSCANSGNSNAGLIGKYGVSWMKRFMDNDTRFSPYLCGAPHQADLSLTAIDEYRENCPY [TEP066]
RDLPPSAPLAANPYERGPAPTVASIEATLGPFATAQTTVAAGSVSGFGGGTIYYPTSTAEGTFGAVAISPGFTARQTSVAWLGPRLASQGFVVITIDTRSVYDQPASRGTQLLAALDYLTNTSTVRTRIDRNRLAVMGHSMGGGGSLSAASTRPALQAAIPLTGWHTQKSWSSVRVPTLVIGAENDTVAPVSSHSEPFYTSLPATLDKAYLELNAASHSAPTSSNVTVAKYSISWLKRFVDDDTRYEQFLCPAPRGSAIEEYRDTCPHS [TEP042]
RPAESGASAAAVQATGTQRGPDPTIAMIEATRGPFATAQVSAPSGNGFGGGVVYYPTDTTQGTWGALAIVPGYSALCSTEEAWMGPWLSSFGFVVICTETNTRTDSDSQRAAELQAALTWLTTQSPVKSEVDPARLSVLGHSAGGAGAMEEAEQHPELRAAIGLAPGFPGQGLTLATDTVPTLIVGGQNDGTVTPSYLSNLYGTLPASTQSDFAQIAGADHVYYTHANNIEMKLIIPWLKVFVDSDTRYTQFLCPTLPDPSTISAYQPKCPYVPSGGSTPPPPTSVAIVGTGSGRCVTVPGGTQTGGTQVQLADCAGGTSQQWTNTATGQLQVFGTSCLDANARGTSPGTKVIIWSCNGQQNQQWTVHADGSITGVQSGLCLDATGAGTANGTPLELWTCNGGSNQKWTLQ [TEP132]
RPAPATTAASQSTQRGPDPTVAMIEATRGPFATAQVSVPAGHGFGGGMIYYPTDTSQGTWGALAIVPGYSALFANEEAWMGPWLSSFGFVVIGVETNTRTDSDSQRAAEVLAALDYLTTQSPVRNEVDPARLSVLGHSAGGAGVIEAAEQRPSLRALIGLAPGYPGQGLSMATDQVPALVVGGQADTTVTPSYLANLYGTLPASTQSDFAQIAGADHVYYTHPNNVEMKLIIPWLKLFVDSDSRYEQFLCPSLPDPSTISAYQPKCPYTPPGGSSSSSSSSSSSSASSSSPTTPTTTTSSTPSTSCTATYQTQNSWPGGFQGLVTVTAGPAAISSWTVKWNLSSGQSITQVWSGTLSTSGSAVSVGNASYNGSLAPGASATFGFLADGSPSTPTLSCTGS [ESM120]
RPAPEAAAPQAAQGNPYQRGPDPTVAAIEASRGPFATAQMSVAPGNGFNGGVVYYPTDTSLGTWGALAIVPGYTALCADEEAWMGPWLSSFGFAVICVETNTRTDDAGTRASELLAGLDWLTTQSPVRAEIDPNRLSVLGHSAGGAGAIIAAERRPALKAMIGLAPGFPGNGLSMATDTVPTLVVGGQNDTVVTPSYLSGLYATLPAGTQSGFAQIAGADHVYYTRPNNVEMKLLIPWLKVFVDSDTRYTQFLCPALPDPSGISAYQPKCPYVPTGGTTPPPGGQSVHAVGAGKCLTVPGADPAAGTQTDISTCDGGTGQVWTRTSSGQLTVSTGGTTMCLDAAGAGVSPGTRVQVWPCNGGSNQQWRVNANGTITGAQSGLCLDVTGASTANGALVELWTCNGGSNQQWALQ [TEP183]
RPRDSAPANPYQRGPDPTVAMIESSTGPFATTSASVPAGHGFNGGTVYYPTDTSLGTWGALAIVPGYSALFANEEAWMGPWLSSFGFVVLGVETNSRTDSADARGTELLAALDYLTTQSPVRDRVDPNRLAVLGHSAGGAGAMLAAENRPSLKAAIGLAPGSPVGNLSLATDKVPTMVLGGQNDTVVTPSYLSGLYATMPASTQSVFAQIAGADHVYYTHPNNVEMKLLIPWLKTFLDSDTRHPPFLCPAPPDPRSISIYTPKCPYVPGGGTPPGGGNTGPLHAVGAAKCLAAPPAGAAGTQVTIGGCDGRAGQTWTRTAAAELTVTPAGTPLCLDASGQGTSPGTKVIVWSCNGQANQQWNLNADGSVTAARSGLCLDVTGASTAEGAPVELWSCNGGSNQRWSLG [TEP095]
RPSAENPYERGPAPTVASIEAARGPFGTAETRVSATAVRGFGGGTIYYPTDTSQGTFGAVAVAPGFTASQSSMSWLGPRLASQGFVIFTIDTLGRYDQPAARGDQLLAALDYLTQSSSVRGRIDGSRLAVMGHSMGGGGSLEAAKDRPALQAAIPLTPWNATKNWSSVRTPTLIIGAERDSVASVAAHSEPFYASLPSTLDRAYLELAGASHFAPNVANVTIAKYSISWLKRFVDNDTRYEQFLCPLPSGSAISEYRGNCPHQG [TEP152]
